Results from the nanobody polyreactivity screen of Harvey et al. (2022).

assay: yeast display, Sf9 membrane polyspecificity reagent, FACS + sequencing; frameworks hold sequencing errors
Outline: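 Nanobodies from a synthetic yeast display library (Saccharomyces cerevisiae BJ5465), induced 36–48 hours with galactose, were stained 1 hour at 4 °C with 10% biotinylated, detergent-solubilized Sf9 membrane reagent, enriched on streptavidin microbeads, then FACS-sorted. Anti-HA (expression) and streptavidin (reagent binding) fluorescence set low and high (top ~1%) gates. Polyreactivity labels come from the gate of origin. Genes were colony-PCR amplified, MiSeq 2 × 250 sequenced and filtered by CDR length.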

Sequence	polyreactivity (PSR sort gate)
QVQLVESGGGLVQAGGSLRLSCAASGSIFGGYGMGWYRQAPGKERELVAAITSGSSTYYADSVTGRFTISRDNAKNTVYLQMNSLKPEDTAVYYCAARPYPHSAYEGDYWGRGTQVTVSS	low polyreactivity
QVQLVESGGGLVQAGGSLRLSCAASGRTFARNAMGWYRQAPGKERELVASINRGGRTNYADSVKGRFTISRDNAKNTVYLQMNSLKPEDTAVYYCAKYILGVGPFFSTYDYWGQGTQVTVSS	high polyreactivity
QVQLVESGGGLVQAGGSLRLSCAASGFIFWDYALGWYRQAPGKEREFVANISRSVGSTYYADSVKGRFTISRDNAKNTVYLQMYTLKPEDTAVYYCAAVTWGEGFDYWGQGTQVTVSS	low polyreactivity
QVQLVESGGGLVQAGGSLRLSCAASGYIFVSYDMGWYRQAPGKERELVAAISWRGGSTYYADSVKGRFTISRDNAMNTVYLQMNSLKPEDTAVYYCAVDDWLDWLFADFGYWGQGTQVTVSS	low polyreactivity
QVQLVESGGGLVQAGGSLRLSCAASGITFAYNAMGWYRQEPGKERELVARITSGGRTYYADSVKGRFTISRDNAKNTVYLQMNSLKPEDTAVYYCATPYTSYLYGYDYWGQGTQVTVSS	low polyreactivity
QDHLVESGGGLVQAGCSLRLTCAASGSIFIPNAMGWYRQAPGKERYLVAAIRSGGSSYYADSVKGRFTISRDNAKNTVYLQMNSLKPEDTAVYYCAADTYTYYYYLARYYYWGQGTQVTVSS	low polyreactivity
QVQLVESGGGLVQAGGSLRLSCAASGFIFASNAMGWYTQAPGKERELVASITIGDSTYYADSVKGRFTISRDNAKNTVYLQMNSLKPEDTAVYYCAAVKTVDVGYDYWGQGTQVTVSS	low polyreactivity
QVQLVESGGGLVQAGGSLRLSCAASGSLFSGYTMAWYSQAPGKERELVAAITRSGGRTYYADSVKGRFTISRDNAKNTVYLQMKSLKPEVTAVNYCAAVDRRGANYNYWGQGTQVTVSS	high polyreactivity
QVQLVESGGGLVQAGGSLRLSCAASGSTIPPNAMGWYRQAPGKERELVAVISNGGSNTRYADSVKGRFTISRDNAKNTVYLQMNRLKPEDTAVYYCAADYEYSGYGYWGQGTQVTVSS	high polyreactivity
QVQIVESGGGLVQAGATLRLSCDASGITIEGYAMGWYRQAPGKERELVAAIRSSGTSTYYADSVKGRFTITRDFAKNTVYLQMNSLKPEDTAVYYCNRARSSSRYDYWGQGTQVTVSS	low polyreactivity
QVQLVESGRGLVQAGGSLRLSCAASGRTFGYYAMGWYRKAPGKERELVAASTYSGARTYYADSVKGRFTISRDNAKNTVYLQRNSLKPEDTAVYYCAADTYYDDGYYYWCQGTQVTVSS	high polyreactivity
QVQLVESGGGLVQAGGSLRLSCAASGFIFSVYAMGWYRQAPGKEREFVAAIRWSGGSTYYADSVKGRFTISRDNAKNTVYLQMNSLKPEDTAVYYCAARARDLYGYWGQGTQVTVSS	high polyreactivity
QVQLVESGGGLVQAGGSLRLSCAASGLIFVINARGWYRQAPGKERELVAAIDYSGGSTYYADSVKGRFTISRDNAKNTVYLQMNSLKPEDTAVYYCAASKIGYWGDYFRYYYWGQGTQVTVSS	low polyreactivity
QVQLVESGGGLVQAGGSLRLSCAASGFIFGNYDMEWYRPAPGKERELVAAITNGGGNTYYADSVKGRITISRDNAKNTVYLQMNSLKPEDTAVSYCHPLRYYYWGQGTQVTVSS	high polyreactivity
QVQLVESGGGLVQAGGSLRLSCAASGSIFDVNAMGWYRQAPGKERELVAAISQRGTRTYYADSVKGRFTISRENAKNTVYLQMNSLKPEDTAVYYCNRGGWRQYDSWGQGTQVTVSS	high polyreactivity
QVQLVESGGGLVQAGGSLRLSCAASGFIFNTNAMRWYRQAPVKEREFDAAITSSDGNTYYADSVKGRFTISRDNAKNTVYLQMNSLKPEDTAVYYCAADARTKSYVRLYDYWGQGTQVTVSS	low polyreactivity
QVHLVESGGGLVQAGGSLRLSCAASGSIFVENAMGWYRQPPGKEREFVAAITRSGGSTYYADSVKGRFTISRDNAKNTVYLQMNSLKPEDTAVYYCAARIWDEQPAAGYYWGQGTQVTVSS	low polyreactivity
QVQLVESGGGLVQAGGSLRLSCAASGLNQANYAMVWYRQAPGQEREMVAAISSSGGSTYYADSVKGRFTISRDNAKNTVYLQMNSLKPEDTAVYYCAAYPLYRRSWTGDYWGQGTQVTVSS	high polyreactivity
QVQLVESGGGLVQAGGSLRLSCAASGIISRVYAMGWYRQAPGKERELVAAITRRGSTTYYADSVKGRFTISRDNAKNTVYLQMNSLKPEDTAVYYCAALARYGPRYRGDYWGQGTQVTVSS	high polyreactivity
QVQLVESGGGLVQAGGSLRLSCAASGFTFPTYAMGWYRQAPGKERELVAAISTSGARTYYADSVKGRFTISRDNAKNTVYLQMNSLKPEDTAVYYCAVGSIYTIGFRKGYRFDYWGQGTQVTVSS	high polyreactivity
QVQLVESGGGLVQAGGSLRLSCAASGSTLNRYAMGWYRQAPGKERELVAAISISGGRTYYADSVKGRFTISRDNAKNTVYLQMNSLKPEDTAVYYCADGNYLYSYGYGYWGQGTQVTVSS	high polyreactivity
QVQLVESGGGLVQAGGSLRLSCAASGYIFDNNAMGWYRQAPGKERELVAAINWSGGSTYYADSVKGRFTISRDNAKNTVYLQMNSLKPEDTAVYYCNKLIYGIYYPERYAYDYWGQGTQVTVSS	low polyreactivity

Sequence	polyreactivity (PSR sort gate)
QVQLVESGGGLVQAGGSLRLSCAASGFTFKRNAMGWYRQAPGKERELVAAISWSGSRTYADSVKGRFTISRDYAKNTVYVQMNSLKPEDTAVYYCAASPGRRRRPYASLIRYDYWGQGTQVTVSS	high polyreactivity
QVQLVESGGGLVQAGGSLRLSCAASGITFDENTMGWYRQAPGKERELVAAITEIGGSTYYADSVKGRFTISRDNAKNTVYLQMNSLKPEDTAVYYCNAARWVVRFVDYEYWGQGTQVTVSS	low polyreactivity
QVQLVESGGGLVQAGGSLRLSCAASGLIFSWYDMGWYRQAPGKERELVAAITTDGDDTYYADSVKGRFTISRDNAKNTVYLQMNSLKPEDTAVYYCAADSELAIRYPDRDYDSWGQGTQVTVSS	low polyreactivity
QVQLVESGGGLVQAGGSLRLSCAASGITFNLNDMGWYRQAPGKERELVAAITSGGNTSYADSVKGRFTISRDNAKNTVDLQMNSLKPEDTAVYYCATEDFRTDTGMYYWGQGTQVTVSS	low polyreactivity
QVQLVDSGGGLVQAGGRLRLSRAASGSIFRRYPMGWYRQAPGKERELVAAISRNSGRTYYADSVKGRFTISRDNAKITDYLQMNSLKPEDTAVYYCNADTSLAANGKFDYWGQGTQGTVSS	high polyreactivity
QVQLVESGGGLVQAGGSLRLSCAASGRTFGGNVMAWYRHAPGKERELVAAITWSGGSTYYADSVKGRFTISRDNAKNTVYVQMNSLKPEDTAVYYCNALWVWYRGSSVRWVGGYDYWGQGTQVTVSS	high polyreactivity
QVQLVESGGGLVQAGGSLRLSCAASGRTFRRYAMGWYRQAPGKERELVAAISRTGSTNNYADSVKGRFTISRDNAKNTVYLQMNSLIPEDTAVYYCKRQHNLGYGYDYWGQGTQVTVSS	high polyreactivity
QVQLVESGGGLVQAGGSLRLSCAASGRTMGQNVMGLYRQAPGKERELVAAISSNTAGNTYYADSVKGRFTISRDNAKNTVYLQMNSLKPEDTAVYYCAKVDSFEAKLDYWGQGTQVTVSS	low polyreactivity
QVQLVESGGGLVQAGGSLRLSCAASGLTFRINTMGWYRQAPGKERELVASISKSGSSTYYADSVKGRFTISRDNAKNTVYLQMNSLKPEDTAVYYCAARTRTLYVTYYSWGQGTQVTVSS	high polyreactivity
QVQLVESGGGLVQAGGSLRLSCASSGSTFYGNAMGWYRQEPGKERELVASISSGGTNYADSVKGRFTISRDNAKNTVYLQMNSLKPEDTAVYYLNADYIDTFRGFDYWGQGTQVTVSS	low polyreactivity
QVQLVESGGGLVQAGGSLRLSCAPSGRIIRPYAKGWYIQAPGKERELVAAISVSGVITYYADSVKGRFTISRDNAKNTVYLQMNSLKPEDTAVYYCATDYTRRRWGRLYDYWGQGTQVTVSS	low polyreactivity
QVQLVESGGGLVQAGGSLRLSCAASGSTFTYYDMGWYRQAPGKERELVATIDSTTRTYYADSVKGRFTISRDNAKNTVYLQMNSLKPEDTAVYYCAADLTWAYFYYLFYRYDYWGQGTQVTVSS	low polyreactivity
QVQNVESGGGLVQAGGSLRLICAASGSIFDPYAMGRYRQAPGKEMELVAAIRKRGSSTYYADSVKGRFTISRDNAKYTVYLQMNSLKPEDTAVYYCAATWVSVWYRYDYWGQGTQVTVSA	high polyreactivity
QVQLVESGGGLVQAGGSLRLSCAASGGTIENYAMGWYRQAPGKERELVAAISSGGSTNYADSVKGRFTISRDNAKNTVYLQMNSLKPEDTAVYYCATRGIWKKVPYYYWGQGTQVTVSS	low polyreactivity
QVQLVESGGGLVQAGGSLRLSCAASGLIFISYAMGWYRQAPGKERELVAAITSTVGGTYYADSVKGRFTISRDNAKNTVYLQMNSLKPEDTAVYYCAAEISYRWWYNLGFTSFVYWGQGTLVTVSS	low polyreactivity
QVQLVESGGGLVQAGGSLRISCAASGRIFLFYAMGWYRQAPGKEREWVAAITYSGSTYYADSVKGRFTISRDNAKNTVYLQMNSLIPEDTAVYYCNARYRTYAGTYGYNYWGQGTQVTVSS	high polyreactivity
QVQLVESGGGLVQAGGSLRLSCAASGGTFSYNTMGWYRQAPGKERELVAVITFSGGSTYYADSVKGRFTISRDNAKNTVYLQMNSLKPEDTAVYYCNARSYPRWLRYDYWGQGTQVTVSS	low polyreactivity
QVQLVESGGGLLQAGGSLRLSCADSGSTFLYKAMGCYIQAPGKEREFVAAISGSGGTTYYADSVKGRFTISRDNAKNTVYLQMNSLKPEDTAVYYCAVSQSWYWYYASDYWGQGTQVTVSS	low polyreactivity
QVQLVESGGGLVQAGGSLRLSCAASGRISYNNAMGWYRQAPGKERELVAAITKNGGRTYYADSVKGRFTISRDNAKNTVYLQMNSLKPEDTAVYYCAVRSYYYGYDYWGQGTQVTVSS	high polyreactivity
QVQLVESGGGLVQAGGSLRLSCAASGGTLEVYAMGWYRQAPGKEREFVAAISWSGGRTYYADSVKGRFTISRDNAKNTVYLQMNSLKPEDTAVYYCATRDRAGYYYWGQGTQVTVSS	high polyreactivity
QVQLVESGGGLVQAGGSLRLSCAASGFIFDSYAMGWNRQAPGKERELVAAIDKRGGRTYYADSVKGRFTISRDNGKNTVYLQMNSLKPEDTAVYYCAADDYTGYGYWGQGTQVTVSS	high polyreactivity
